Measured values as given in IntAct's records for PubMed 31515488.

B1: Baculoviral IAP repeat-containing protein 7 (Homo sapiens), Q96CA5-1 (parent)
chain: MGPKDSAKCLHRGPQPSHWAAGDGPTQERCGPRSLGSPVLGLDTCRAWDHVDGQILGQLRPLTEEEEEEGAGATLSRGPAFPGMGSEELRLASFYDWPLTAEVPPELLAAAGFFHTGHQDKVRCFFCYGGLQSWKRGDDPWTEHAKWFPSCQFLLRSKGRDFVHSVQETHSQLLGSWDPWEEPEDAAPVAPSVPASGYPELPTPRREVQSESAQEPGGVSPAEAQRAWWVLEPPGARDVEAQLRRLQEERTCKVCLDRAVSIVFVPCGHLVCAECAPGLQLCPICRAPVRSRVRTFLS
B2: Notch homolog 2 N-terminal-like protein A (Homo sapiens), Q7Z3S9 (parent)
chain: MCVTYHNGTGYCKCPEGFLGEYCQHRDPCEKNRCQNGGTCVAQAMLGKATCRCASGFTGEDCQYSTSHPCFVSRPCLNGGTCHMLSRDTYECTCQVGFTGKECQWTDACLSHPCANGSTCTTVANQFSCKCLTGFTGQKCETDVNECDIPGHCQHGGTCLNLPGSYQCQCLQGFTGQYCDSLYVPCAPSPCVNGGTCRQTGDFTFECNCLPETVRRGTELWERDREVWNGKEHDEN
partner: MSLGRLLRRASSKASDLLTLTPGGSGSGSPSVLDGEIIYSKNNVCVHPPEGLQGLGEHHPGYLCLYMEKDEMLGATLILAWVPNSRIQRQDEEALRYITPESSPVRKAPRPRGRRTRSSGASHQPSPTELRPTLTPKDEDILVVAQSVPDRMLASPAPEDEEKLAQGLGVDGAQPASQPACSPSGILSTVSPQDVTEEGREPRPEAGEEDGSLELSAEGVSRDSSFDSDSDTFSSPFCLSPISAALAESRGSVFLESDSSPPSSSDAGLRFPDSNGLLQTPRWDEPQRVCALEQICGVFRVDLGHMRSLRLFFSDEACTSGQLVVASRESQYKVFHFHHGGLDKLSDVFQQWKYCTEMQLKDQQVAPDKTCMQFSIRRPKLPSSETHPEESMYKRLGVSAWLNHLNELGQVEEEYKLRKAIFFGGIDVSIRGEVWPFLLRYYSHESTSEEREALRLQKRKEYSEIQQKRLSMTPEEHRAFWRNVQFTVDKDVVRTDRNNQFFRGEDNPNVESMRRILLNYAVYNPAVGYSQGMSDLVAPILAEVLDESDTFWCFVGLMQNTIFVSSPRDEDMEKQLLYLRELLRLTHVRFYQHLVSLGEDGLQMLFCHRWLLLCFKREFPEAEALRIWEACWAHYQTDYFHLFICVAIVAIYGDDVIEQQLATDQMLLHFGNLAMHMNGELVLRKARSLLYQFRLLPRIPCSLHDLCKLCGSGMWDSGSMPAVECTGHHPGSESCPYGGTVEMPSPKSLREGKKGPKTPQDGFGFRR
B3: Zinc finger protein 774 (Homo sapiens), Q6NX45 (parent)
chain: MWLGTSGKSGLPGHCLENPLQECHPAQLEEWALKGISRPSVISQPEQKEEPWVLPLQNFEARKIPRESHTDCEHQVAKLNQDNSETAEQCGTSSERTNKDLSHTLSWGGNWEQGLELEGQHGTLPGEGQLESFSQERDLNKLLDGYVGEKPMCAECGKSFNQSSYLIRHLRTHTGERPYTCIECGKGFKQSSDLVTHRRTHTGEKPYQCKGCEKKFSDSSTLIKHQRTHTGERPYECPECGKTFGRKPHLIMHQRTHTGEKPYACLECHKSFSRSSNFITHQRTHTGVKPYRCNDCGESFSQSSDLIKHQRTHTGERPFKCPECGKGFRDSSHFVAHMSTHSGERPFSCPDCHKSFSQSSHLVTHQRTHTGERPFKCENCGKGFADSSALIKHQRIHTGERPYKCGECGKSFNQSSHFITHQRIHLGDRPYRCPECGKTFNQRSHFLTHQRTHTGEKPFHCSKCNKSFRQKAHLLCHQNTHLI
partner: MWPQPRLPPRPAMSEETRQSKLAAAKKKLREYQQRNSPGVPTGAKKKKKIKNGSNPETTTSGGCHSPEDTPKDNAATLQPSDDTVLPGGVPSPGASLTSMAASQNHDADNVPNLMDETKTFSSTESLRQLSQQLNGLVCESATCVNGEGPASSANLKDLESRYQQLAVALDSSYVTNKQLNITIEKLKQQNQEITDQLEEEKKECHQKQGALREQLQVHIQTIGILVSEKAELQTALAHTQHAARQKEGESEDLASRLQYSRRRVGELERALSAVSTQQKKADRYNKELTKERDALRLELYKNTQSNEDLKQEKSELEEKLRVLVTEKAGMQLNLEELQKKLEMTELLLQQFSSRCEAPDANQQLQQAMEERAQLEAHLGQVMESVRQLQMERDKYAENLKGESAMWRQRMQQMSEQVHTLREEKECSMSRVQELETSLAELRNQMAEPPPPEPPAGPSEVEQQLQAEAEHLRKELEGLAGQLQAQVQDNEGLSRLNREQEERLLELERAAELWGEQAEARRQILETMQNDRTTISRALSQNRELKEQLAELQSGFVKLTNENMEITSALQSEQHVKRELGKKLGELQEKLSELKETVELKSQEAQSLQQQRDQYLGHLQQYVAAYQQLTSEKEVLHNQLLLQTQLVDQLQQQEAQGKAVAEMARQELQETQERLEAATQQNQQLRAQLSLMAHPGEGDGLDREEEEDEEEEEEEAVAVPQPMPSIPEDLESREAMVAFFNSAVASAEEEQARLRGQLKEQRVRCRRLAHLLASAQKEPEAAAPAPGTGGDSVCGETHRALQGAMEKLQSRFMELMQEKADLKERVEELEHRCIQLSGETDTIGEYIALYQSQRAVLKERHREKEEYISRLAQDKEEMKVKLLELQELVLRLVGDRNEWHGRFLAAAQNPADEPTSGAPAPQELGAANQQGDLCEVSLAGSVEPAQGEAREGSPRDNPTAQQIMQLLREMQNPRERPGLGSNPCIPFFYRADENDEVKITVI
B4: Low-density lipoprotein receptor class A domain-containing protein 1 (Homo sapiens), Q5T700 (parent)
chain: MNKVFPQGENGYTAAESKAHPGGEAGGGHLCCSRRGACLSASLLLLLATVAALIALVTILGLPSCTPGAQACITLTNRTGFLCHDQRSCIPASGVCDGVRTCTHGEDEDESLCRDVPQSLPHFLVAHCGDPASWIYSDQKCDGTNNCGDCSDELSPVTVCPPCGPGWWRCPSTFFKYCDCIPRHLCRDHVQHCSDWSDEYACPGP
B5: Maspardin (Homo sapiens), Q9NZD8 (parent)
chain: MGEIKVSPDYNWFRGTVPLKKIIVDDDDSKIWSLYDAGPRSIRCPLIFLPPVSGTADVFFRQILALTGWGYRVIALQYPVYWDHLEFCDGFRKLLDHLQLDKVHLFGASLGGFLAQKFAEYTHKSPRVHSLILCNSFSDTSIFNQTWTANSFWLMPAFMLKKIVLGNFSSGPVDPMMADAIDFMVDRLESLGQSELASRLTLNCQNSYVEPHKIRDIPVTIMDVFDQSALSTEAKEEMYKLYPNARRAHLKTGGNFPYLCRSAEVNLYVQIHLLQFHGTKYAAIDPSMVSAEELEVQKGSLGISQEEQ
partner: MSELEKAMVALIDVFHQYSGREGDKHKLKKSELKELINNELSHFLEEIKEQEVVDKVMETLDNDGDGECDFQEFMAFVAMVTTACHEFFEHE
B6: MTRF1L release factor glutamine methyltransferase (Homo sapiens), Q9Y5R4 (parent)
chain: MELWGRMLWALLSGPGRRGSTRGWAFSSWQPQPPLAGLSSAIELVSHWTGVFEKRGIPEARESSEYIVAHVLGAKTFQSLRPALWTQPLTSQQLQCIRELSSRRLQRMPVQYILGEWDFQGLSLRMVPPVFIPRPETEELVEWVLEEVAQRSHAVGSPGSPLILEVGCGSGAISLSLLSQLPQSRVIAVDKREAAISLTHENAQRLRLQDRIWIIHLDMTSERSWTHLPWGPMDLIVSNPPYVFHQDMEQLAPEIRSYEDPAALDGGEEGMDIITHILALAPRLLKDSGSIFLEVDPRHPELVSSWLQSRPDLYLNLVAVRRDFCGRPRFLHIRRSGP
partner: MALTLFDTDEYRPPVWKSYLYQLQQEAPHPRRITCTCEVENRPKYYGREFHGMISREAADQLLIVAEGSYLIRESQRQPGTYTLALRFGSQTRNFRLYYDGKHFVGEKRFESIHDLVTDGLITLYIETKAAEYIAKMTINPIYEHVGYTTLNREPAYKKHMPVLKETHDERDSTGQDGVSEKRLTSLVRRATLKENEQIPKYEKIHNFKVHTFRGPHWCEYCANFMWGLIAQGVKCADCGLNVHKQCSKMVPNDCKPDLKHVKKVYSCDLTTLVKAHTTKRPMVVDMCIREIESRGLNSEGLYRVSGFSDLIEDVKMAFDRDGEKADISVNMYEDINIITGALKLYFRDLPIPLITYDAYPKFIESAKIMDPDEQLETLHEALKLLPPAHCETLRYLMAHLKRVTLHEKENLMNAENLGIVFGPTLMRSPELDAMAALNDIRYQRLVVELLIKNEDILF

Variants of: B1
Settings: with phf1_human PHF1, O43189
phf1_human PHF1, O43189, sequence (O43189 whole entry): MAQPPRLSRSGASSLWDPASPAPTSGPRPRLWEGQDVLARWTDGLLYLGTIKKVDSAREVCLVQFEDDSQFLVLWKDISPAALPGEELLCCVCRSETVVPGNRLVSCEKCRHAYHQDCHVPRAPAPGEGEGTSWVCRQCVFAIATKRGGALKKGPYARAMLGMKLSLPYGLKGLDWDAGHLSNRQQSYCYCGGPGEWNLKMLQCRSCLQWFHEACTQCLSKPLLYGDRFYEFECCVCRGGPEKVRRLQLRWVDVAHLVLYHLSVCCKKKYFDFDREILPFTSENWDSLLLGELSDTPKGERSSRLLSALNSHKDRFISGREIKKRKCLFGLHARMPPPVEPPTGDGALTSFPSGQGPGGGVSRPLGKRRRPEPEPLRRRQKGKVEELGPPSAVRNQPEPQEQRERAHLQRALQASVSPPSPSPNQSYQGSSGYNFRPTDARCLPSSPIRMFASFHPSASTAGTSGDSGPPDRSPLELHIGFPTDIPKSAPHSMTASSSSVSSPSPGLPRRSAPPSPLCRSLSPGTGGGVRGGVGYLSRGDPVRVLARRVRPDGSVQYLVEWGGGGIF

Variant | effect of a mutation on the interaction
H164R | with no effect

Variants of: B1
Settings: with ddx6_human DDX6, P26196
ddx6_human DDX6, P26196, sequence (P26196 whole entry): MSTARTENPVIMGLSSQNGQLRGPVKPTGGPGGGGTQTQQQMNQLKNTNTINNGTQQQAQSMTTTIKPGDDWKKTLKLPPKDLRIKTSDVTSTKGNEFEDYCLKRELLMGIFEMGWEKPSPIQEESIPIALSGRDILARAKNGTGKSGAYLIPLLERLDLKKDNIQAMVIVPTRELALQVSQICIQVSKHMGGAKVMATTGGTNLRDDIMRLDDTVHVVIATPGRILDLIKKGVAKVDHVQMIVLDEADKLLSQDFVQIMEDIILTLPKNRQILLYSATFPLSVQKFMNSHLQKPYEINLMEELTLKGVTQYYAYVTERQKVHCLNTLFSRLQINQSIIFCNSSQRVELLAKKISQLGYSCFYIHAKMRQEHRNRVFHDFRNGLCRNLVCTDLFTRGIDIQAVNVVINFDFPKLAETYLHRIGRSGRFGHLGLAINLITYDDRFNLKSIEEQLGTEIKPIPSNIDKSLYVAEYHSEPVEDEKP

Variant | effect of a mutation on the interaction
H164R | with no effect

Variants of: B1
Settings: with birc2_human BIRC2, Q13490
birc2_human BIRC2, Q13490, sequence (Q13490 whole entry): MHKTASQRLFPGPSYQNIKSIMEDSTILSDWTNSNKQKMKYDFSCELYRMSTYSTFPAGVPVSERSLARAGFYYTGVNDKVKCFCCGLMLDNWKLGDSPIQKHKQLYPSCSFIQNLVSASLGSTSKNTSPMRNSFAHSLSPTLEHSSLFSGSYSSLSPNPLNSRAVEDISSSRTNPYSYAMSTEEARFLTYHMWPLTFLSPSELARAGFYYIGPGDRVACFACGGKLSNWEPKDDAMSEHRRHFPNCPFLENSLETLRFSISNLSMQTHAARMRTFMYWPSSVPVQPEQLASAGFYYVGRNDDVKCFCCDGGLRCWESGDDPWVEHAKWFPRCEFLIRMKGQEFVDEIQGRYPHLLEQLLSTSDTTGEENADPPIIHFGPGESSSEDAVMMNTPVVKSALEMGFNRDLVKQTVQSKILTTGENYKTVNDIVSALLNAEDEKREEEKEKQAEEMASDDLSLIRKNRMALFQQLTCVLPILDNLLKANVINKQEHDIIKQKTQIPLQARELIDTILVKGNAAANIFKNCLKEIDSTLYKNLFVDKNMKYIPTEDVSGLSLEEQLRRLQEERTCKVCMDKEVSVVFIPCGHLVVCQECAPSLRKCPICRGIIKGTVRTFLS

Variant | effect of a mutation on the interaction
H164R | with no effect

Variants of: B1
Settings: with ddx6_human DDX6, P26196
Remark: another data set of the same source

Variant | effect of a mutation on the interaction
H164R | with no effect

Variants of: B1
Settings: with casp9_human CASP9, P55211
casp9_human CASP9, P55211, sequence (P55211 whole entry): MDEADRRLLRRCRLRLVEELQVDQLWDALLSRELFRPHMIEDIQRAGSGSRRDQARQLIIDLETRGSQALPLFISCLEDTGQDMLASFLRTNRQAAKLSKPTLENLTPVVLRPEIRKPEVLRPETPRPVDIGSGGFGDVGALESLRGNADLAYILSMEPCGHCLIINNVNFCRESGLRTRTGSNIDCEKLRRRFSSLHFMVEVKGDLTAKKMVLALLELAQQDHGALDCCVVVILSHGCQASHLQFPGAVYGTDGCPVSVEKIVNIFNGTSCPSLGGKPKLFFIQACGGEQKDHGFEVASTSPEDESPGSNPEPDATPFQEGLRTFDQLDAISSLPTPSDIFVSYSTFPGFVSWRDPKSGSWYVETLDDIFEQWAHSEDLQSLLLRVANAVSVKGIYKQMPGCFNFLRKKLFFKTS

Variant | effect of a mutation on the interaction
H164R | with no effect

Variants of: B1
Settings: with birc2_human BIRC2, Q13490
Remark: another data set of the same source

Variant | effect of a mutation on the interaction
H164R | with no effect

Variants of: B1
Settings: with phf1_human PHF1, O43189
Remark: another data set of the same source

Variant | effect of a mutation on the interaction
H164R | with no effect

Variants of: B1
Settings: with casp9_human CASP9, P55211
Remark: another data set of the same source

Variant | effect of a mutation on the interaction
H164R | with no effect

Variants of: B2
Settings: with tbc16_human TBC1D16, Q8TBP0

Variant | effect of a mutation on the interaction
R74Q | with no effect
A115T | with no effect

Variants of: B3
Settings: with goga2_human GOLGA2, Q08379

Variant | effect of a mutation on the interaction
P65L | with no effect

Variants of: B4
Settings: with tm190_human TMEM190, Q8WZ59
tm190_human TMEM190, Q8WZ59, sequence (Q8WZ59 whole entry): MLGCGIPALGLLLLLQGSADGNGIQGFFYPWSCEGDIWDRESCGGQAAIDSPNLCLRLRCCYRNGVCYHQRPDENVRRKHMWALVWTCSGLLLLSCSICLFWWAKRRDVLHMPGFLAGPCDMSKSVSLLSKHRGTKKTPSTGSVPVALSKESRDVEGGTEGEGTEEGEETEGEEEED

Variant | effect of a mutation on the interaction
E108K | with no effect

Variants of: B4
Settings: with tm218_human TMEM218, A2RU14
tm218_human TMEM218, A2RU14, sequence (A2RU14 whole entry): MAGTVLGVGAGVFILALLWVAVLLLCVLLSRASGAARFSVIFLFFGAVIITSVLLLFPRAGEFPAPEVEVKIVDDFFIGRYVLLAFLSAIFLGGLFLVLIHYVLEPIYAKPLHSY

Variant | effect of a mutation on the interaction
E108K | with no effect

Variants of: B4
Settings: with bni3l_human BNIP3L

Variant | effect of a mutation on the interaction
E108K | with no effect
G105S | with no effect

Variants of: B4
Settings: with tm147_human TMEM147, Q9BVK8
tm147_human TMEM147, Q9BVK8, sequence (Q9BVK8 whole entry): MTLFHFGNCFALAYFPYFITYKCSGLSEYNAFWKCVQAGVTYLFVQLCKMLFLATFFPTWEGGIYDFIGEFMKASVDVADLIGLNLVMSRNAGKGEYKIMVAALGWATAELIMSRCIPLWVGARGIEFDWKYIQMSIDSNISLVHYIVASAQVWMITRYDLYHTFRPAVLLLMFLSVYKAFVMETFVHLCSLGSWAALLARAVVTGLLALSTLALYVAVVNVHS

Variant | effect of a mutation on the interaction
E108K | with no effect
G105S | with no effect

Variants of: B4
Settings: with mal_human MAL

Variant | effect of a mutation on the interaction
E108K | with no effect
G105S | with no effect

Variants of: B4
Settings: with mall_human MALL

Variant | effect of a mutation on the interaction
S42F | with no effect

Variants of: B4
Settings: with olfm4_human OLFM4, Q6UX06
olfm4_human OLFM4, Q6UX06, sequence (Q6UX06 whole entry): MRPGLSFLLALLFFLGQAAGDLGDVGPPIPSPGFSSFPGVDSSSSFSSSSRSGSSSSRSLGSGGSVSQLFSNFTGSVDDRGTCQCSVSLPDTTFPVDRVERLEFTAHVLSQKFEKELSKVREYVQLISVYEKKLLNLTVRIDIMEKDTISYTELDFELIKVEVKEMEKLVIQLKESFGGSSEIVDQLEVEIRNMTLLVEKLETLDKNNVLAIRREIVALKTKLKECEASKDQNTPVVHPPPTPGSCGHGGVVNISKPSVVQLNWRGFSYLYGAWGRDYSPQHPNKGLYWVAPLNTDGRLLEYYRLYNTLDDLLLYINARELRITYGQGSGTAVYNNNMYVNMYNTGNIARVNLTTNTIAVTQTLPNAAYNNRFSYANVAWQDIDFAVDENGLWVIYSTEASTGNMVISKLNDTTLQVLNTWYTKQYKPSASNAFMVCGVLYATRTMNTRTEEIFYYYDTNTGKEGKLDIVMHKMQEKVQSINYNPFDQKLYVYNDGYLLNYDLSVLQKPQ

Variant | effect of a mutation on the interaction
S42F | with no effect

Variants of: B5
Settings: with S100B

Variant | effect of a mutation on the interaction
A180T | disrupting interaction strength
H272D | disrupting interaction strength

Variants of: B6
Settings: with chin_human CHN1, P15882

Variant | effect of a mutation on the interaction
H200Q | disrupting interaction strength
